Drawing on patent US20210139548A1 (published 2021), this text covers Ki for six molecules.

*1 amine or outer side, *2 acyl side, *3 side chain or, on linkers, in order; H or OH if unused. Side-chain parts run from the residue outwards. The star is where a group is joined. C18 diacid = O=C(O)CCCCCCCCCCCCCCCCC(=O)*; γGlu = O=C(O)[C@H](CCC(=O)[*:2])N[*:1]; Isovaleryl = CC(C)CC(=O)*; AEEA = NCCOCCOCC(=O)O

B1: Compound 220 (peptide)
peptide: Isovaleryl-APEK([AEEA-AEEA-γGlu-C18 diacid])PEEAASAEELQRYYVSLRHYYNWLTRQRY-NH2
SMILES: CC(C)CC(=O)N[C@@H](C)C(=O)N1CCC[C@H]1C(=O)N[C@@H](CCC(=O)O)C(=O)N[C@@H](CCCCNC(=O)COCCOCCNC(=O)COCCOCCNC(=O)CC[C@H](NC(=O)CCCCCCCCCCCCCCCCC(=O)O)C(=O)O)C(=O)N1CCC[C@H]1C(=O)N[C@@H](CCC(=O)O)C(=O)N[C@@H](CCC(=O)O)C(=O)N[C@@H](C)C(=O)N[C@@H](C)C(=O)N[C@@H](CO)C(=O)N[C@@H](C)C(=O)N[C@@H](CCC(=O)O)C(=O)N[C@@H](CCC(=O)O)C(=O)N[C@@H](CC(C)C)C(=O)N[C@@H](CCC(N)=O)C(=O)N[C@@H](CCCNC(=N)N)C(=O)N[C@@H](Cc1ccc(O)cc1)C(=O)N[C@@H](Cc1ccc(O)cc1)C(=O)N[C@H](C(=O)N[C@@H](CO)C(=O)N[C@@H](CC(C)C)C(=O)N[C@@H](CCCNC(=N)N)C(=O)N[C@@H](Cc1c[nH]cn1)C(=O)N[C@@H](Cc1ccc(O)cc1)C(=O)N[C@@H](Cc1ccc(O)cc1)C(=O)N[C@@H](CC(N)=O)C(=O)N[C@@H](Cc1c[nH]c2ccccc12)C(=O)N[C@@H](CC(C)C)C(=O)N[C@H](C(=O)N[C@@H](CCCNC(=N)N)C(=O)N[C@@H](CCC(N)=O)C(=O)N[C@@H](CCCNC(=N)N)C(=O)N[C@@H](Cc1ccc(O)cc1)C(N)=O)[C@@H](C)O)C(C)C
B2: Compound 227 (peptide)
peptide: Isovaleryl-APEK([AEEA-AEEA-γGlu-C18 diacid])AEEDASPEELEQYYVSLRHYYNWLTRQRY-NH2
SMILES: CC(C)CC(=O)N[C@@H](C)C(=O)N1CCC[C@H]1C(=O)N[C@@H](CCC(=O)O)C(=O)N[C@@H](CCCCNC(=O)COCCOCCNC(=O)COCCOCCNC(=O)CC[C@H](NC(=O)CCCCCCCCCCCCCCCCC(=O)O)C(=O)O)C(=O)N[C@@H](C)C(=O)N[C@@H](CCC(=O)O)C(=O)N[C@@H](CCC(=O)O)C(=O)N[C@@H](CC(=O)O)C(=O)N[C@@H](C)C(=O)N[C@@H](CO)C(=O)N1CCC[C@H]1C(=O)N[C@@H](CCC(=O)O)C(=O)N[C@@H](CCC(=O)O)C(=O)N[C@@H](CC(C)C)C(=O)N[C@@H](CCC(=O)O)C(=O)N[C@@H](CCC(N)=O)C(=O)N[C@@H](Cc1ccc(O)cc1)C(=O)N[C@@H](Cc1ccc(O)cc1)C(=O)N[C@H](C(=O)N[C@@H](CO)C(=O)N[C@@H](CC(C)C)C(=O)N[C@@H](CCCNC(=N)N)C(=O)N[C@@H](Cc1c[nH]cn1)C(=O)N[C@@H](Cc1ccc(O)cc1)C(=O)N[C@@H](Cc1ccc(O)cc1)C(=O)N[C@@H](CC(N)=O)C(=O)N[C@@H](Cc1c[nH]c2ccccc12)C(=O)N[C@@H](CC(C)C)C(=O)N[C@H](C(=O)N[C@@H](CCCNC(=N)N)C(=O)N[C@@H](CCC(N)=O)C(=O)N[C@@H](CCCNC(=N)N)C(=O)N[C@@H](Cc1ccc(O)cc1)C(N)=O)[C@@H](C)O)C(C)C
B3: Compound 224 (peptide)
peptide: Isovaleryl-APEK([AEEA-AEEA-γGlu-C18 diacid])PGEEASPEELEQYYVSLRHYYNWLTRQRY-NH2
SMILES: CC(C)CC(=O)N[C@@H](C)C(=O)N1CCC[C@H]1C(=O)N[C@@H](CCC(=O)O)C(=O)N[C@@H](CCCCNC(=O)COCCOCCNC(=O)COCCOCCNC(=O)CC[C@H](NC(=O)CCCCCCCCCCCCCCCCC(=O)O)C(=O)O)C(=O)N1CCC[C@H]1C(=O)NCC(=O)N[C@@H](CCC(=O)O)C(=O)N[C@@H](CCC(=O)O)C(=O)N[C@@H](C)C(=O)N[C@@H](CO)C(=O)N1CCC[C@H]1C(=O)N[C@@H](CCC(=O)O)C(=O)N[C@@H](CCC(=O)O)C(=O)N[C@@H](CC(C)C)C(=O)N[C@@H](CCC(=O)O)C(=O)N[C@@H](CCC(N)=O)C(=O)N[C@@H](Cc1ccc(O)cc1)C(=O)N[C@@H](Cc1ccc(O)cc1)C(=O)N[C@H](C(=O)N[C@@H](CO)C(=O)N[C@@H](CC(C)C)C(=O)N[C@@H](CCCNC(=N)N)C(=O)N[C@@H](Cc1c[nH]cn1)C(=O)N[C@@H](Cc1ccc(O)cc1)C(=O)N[C@@H](Cc1ccc(O)cc1)C(=O)N[C@@H](CC(N)=O)C(=O)N[C@@H](Cc1c[nH]c2ccccc12)C(=O)N[C@@H](CC(C)C)C(=O)N[C@H](C(=O)N[C@@H](CCCNC(=N)N)C(=O)N[C@@H](CCC(N)=O)C(=O)N[C@@H](CCCNC(=N)N)C(=O)N[C@@H](Cc1ccc(O)cc1)C(N)=O)[C@@H](C)O)C(C)C
B4: Compound 223 (peptide)
peptide: Isovaleryl-APEK([AEEA-AEEA-γGlu-C18 diacid])PEEAAEPEELQRYYVSLRHYYNWLTRQRY-NH2
SMILES: CC(C)CC(=O)N[C@@H](C)C(=O)N1CCC[C@H]1C(=O)N[C@@H](CCC(=O)O)C(=O)N[C@@H](CCCCNC(=O)COCCOCCNC(=O)COCCOCCNC(=O)CC[C@H](NC(=O)CCCCCCCCCCCCCCCCC(=O)O)C(=O)O)C(=O)N1CCC[C@H]1C(=O)N[C@@H](CCC(=O)O)C(=O)N[C@@H](CCC(=O)O)C(=O)N[C@@H](C)C(=O)N[C@@H](C)C(=O)N[C@@H](CCC(=O)O)C(=O)N1CCC[C@H]1C(=O)N[C@@H](CCC(=O)O)C(=O)N[C@@H](CCC(=O)O)C(=O)N[C@@H](CC(C)C)C(=O)N[C@@H](CCC(N)=O)C(=O)N[C@@H](CCCNC(=N)N)C(=O)N[C@@H](Cc1ccc(O)cc1)C(=O)N[C@@H](Cc1ccc(O)cc1)C(=O)N[C@H](C(=O)N[C@@H](CO)C(=O)N[C@@H](CC(C)C)C(=O)N[C@@H](CCCNC(=N)N)C(=O)N[C@@H](Cc1c[nH]cn1)C(=O)N[C@@H](Cc1ccc(O)cc1)C(=O)N[C@@H](Cc1ccc(O)cc1)C(=O)N[C@@H](CC(N)=O)C(=O)N[C@@H](Cc1c[nH]c2ccccc12)C(=O)N[C@@H](CC(C)C)C(=O)N[C@H](C(=O)N[C@@H](CCCNC(=N)N)C(=O)N[C@@H](CCC(N)=O)C(=O)N[C@@H](CCCNC(=N)N)C(=O)N[C@@H](Cc1ccc(O)cc1)C(N)=O)[C@@H](C)O)C(C)C
B5: Compound 229 (peptide)
peptide: Isovaleryl-APEK([AEEA-AEEA-γGlu-C18 diacid])PEEDASPEELQRYYVSARHYYNWLTRQRY-NH2
SMILES: CC(C)CC(=O)N[C@@H](C)C(=O)N1CCC[C@H]1C(=O)N[C@@H](CCC(=O)O)C(=O)N[C@@H](CCCCNC(=O)COCCOCCNC(=O)COCCOCCNC(=O)CC[C@H](NC(=O)CCCCCCCCCCCCCCCCC(=O)O)C(=O)O)C(=O)N1CCC[C@H]1C(=O)N[C@@H](CCC(=O)O)C(=O)N[C@@H](CCC(=O)O)C(=O)N[C@@H](CC(=O)O)C(=O)N[C@@H](C)C(=O)N[C@@H](CO)C(=O)N1CCC[C@H]1C(=O)N[C@@H](CCC(=O)O)C(=O)N[C@@H](CCC(=O)O)C(=O)N[C@@H](CC(C)C)C(=O)N[C@@H](CCC(N)=O)C(=O)N[C@@H](CCCNC(=N)N)C(=O)N[C@@H](Cc1ccc(O)cc1)C(=O)N[C@@H](Cc1ccc(O)cc1)C(=O)N[C@H](C(=O)N[C@@H](CO)C(=O)N[C@@H](C)C(=O)N[C@@H](CCCNC(=N)N)C(=O)N[C@@H](Cc1c[nH]cn1)C(=O)N[C@@H](Cc1ccc(O)cc1)C(=O)N[C@@H](Cc1ccc(O)cc1)C(=O)N[C@@H](CC(N)=O)C(=O)N[C@@H](Cc1c[nH]c2ccccc12)C(=O)N[C@@H](CC(C)C)C(=O)N[C@H](C(=O)N[C@@H](CCCNC(=N)N)C(=O)N[C@@H](CCC(N)=O)C(=O)N[C@@H](CCCNC(=N)N)C(=O)N[C@@H](Cc1ccc(O)cc1)C(N)=O)[C@@H](C)O)C(C)C
B6: Compound 226 (peptide)
peptide: Isovaleryl-APEK([AEEA-AEEA-γGlu-C18 diacid])PEEAASPEETQRYYVSLRHYYNWLTRQRY-NH2
SMILES: CC(C)CC(=O)N[C@@H](C)C(=O)N1CCC[C@H]1C(=O)N[C@@H](CCC(=O)O)C(=O)N[C@@H](CCCCNC(=O)COCCOCCNC(=O)COCCOCCNC(=O)CC[C@H](NC(=O)CCCCCCCCCCCCCCCCC(=O)O)C(=O)O)C(=O)N1CCC[C@H]1C(=O)N[C@@H](CCC(=O)O)C(=O)N[C@@H](CCC(=O)O)C(=O)N[C@@H](C)C(=O)N[C@@H](C)C(=O)N[C@@H](CO)C(=O)N1CCC[C@H]1C(=O)N[C@@H](CCC(=O)O)C(=O)N[C@@H](CCC(=O)O)C(=O)N[C@H](C(=O)N[C@@H](CCC(N)=O)C(=O)N[C@@H](CCCNC(=N)N)C(=O)N[C@@H](Cc1ccc(O)cc1)C(=O)N[C@@H](Cc1ccc(O)cc1)C(=O)N[C@H](C(=O)N[C@@H](CO)C(=O)N[C@@H](CC(C)C)C(=O)N[C@@H](CCCNC(=N)N)C(=O)N[C@@H](Cc1c[nH]cn1)C(=O)N[C@@H](Cc1ccc(O)cc1)C(=O)N[C@@H](Cc1ccc(O)cc1)C(=O)N[C@@H](CC(N)=O)C(=O)N[C@@H](Cc1c[nH]c2ccccc12)C(=O)N[C@@H](CC(C)C)C(=O)N[C@H](C(=O)N[C@@H](CCCNC(=N)N)C(=O)N[C@@H](CCC(N)=O)C(=O)N[C@@H](CCCNC(=N)N)C(=O)N[C@@H](Cc1ccc(O)cc1)C(N)=O)[C@@H](C)O)C(C)C)[C@@H](C)O

The target in the test is T1, human neuropeptide Y2 receptor (human, UniProt P49146 1-381).
T1 construct: whole, on cells; also called hNPY2 receptor; hNPY2-R
T1 sequence (looked up): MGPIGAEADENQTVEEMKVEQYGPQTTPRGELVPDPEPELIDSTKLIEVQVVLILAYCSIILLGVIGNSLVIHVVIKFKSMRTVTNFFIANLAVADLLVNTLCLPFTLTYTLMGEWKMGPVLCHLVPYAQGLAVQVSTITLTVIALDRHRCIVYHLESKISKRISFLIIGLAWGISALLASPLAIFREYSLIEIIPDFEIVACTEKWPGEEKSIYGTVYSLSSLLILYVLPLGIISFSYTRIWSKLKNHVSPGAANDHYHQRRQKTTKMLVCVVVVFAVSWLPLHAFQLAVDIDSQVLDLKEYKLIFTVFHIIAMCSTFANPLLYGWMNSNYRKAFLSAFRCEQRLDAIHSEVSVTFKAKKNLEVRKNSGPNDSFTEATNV
As to the kind of experiment: radioligand competition (125I-PYY(1-36)), hNPY2R membranes. Put shortly: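 Commercial human Y2 receptor membranes (0.5 μg protein/well) were incubated with peptide for 2 h at room temperature in 50 mM HEPES, 5 mM MgCl₂, 1 mM CaCl₂, pH 7.4, with 0.2% ovalbumin. Bound radioligand was separated on PEI-soaked GF/C filters and counted by scintillation, and IC₅₀ came from nonlinear sigmoidal regression.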
A general note: In a radioligand displacement assay an active substance lowers the binding of a labelled ligand.
The molecule B1 gave a Ki of 2.99 nM.
As for B2, the figure is 12.3 nM; as for B3, 4.64 nM.
B4 gave a Ki of 4.77 nM.
As for B5, the figure is 2.84 nM; as for B6, 1.21 nM.

As usually defined, the Ki is the equilibrium dissociation constant of an inhibitor or competing ligand from its target.
